Numbered stars: 1 amine (or outer) side, 2 acyl side, 3 side chain; on linkers, the order of the positions; unused ones are H or OH. Bridge positions count the residues as written; N and C are the ends. Side chains are listed from the residue outwards. Ends that are not written are not given here. * marks the point of attachment. C20 diacid = O=C(O)CCCCCCCCCCCCCCCCCCC(=O)*; γGlu = O=C(O)[C@H](CCC(=O)[*:2])N[*:1]; AEEA = NCCOCCOCC(=O)O

For assay [1], the target named is T1, human amylin receptor (amylin 3(a) receptor: human calcitonin receptor with RAMP-3) (human, UniProt P30988 25-474; O60896 24-148).
T1 construct: whole, on cells; Assay used cell membranes of the Amylin 3(a)/CRE-luc BHK cells, not intact cells; also called hAmylin-R; hAmylinR
T1 sequence (looked up) 1: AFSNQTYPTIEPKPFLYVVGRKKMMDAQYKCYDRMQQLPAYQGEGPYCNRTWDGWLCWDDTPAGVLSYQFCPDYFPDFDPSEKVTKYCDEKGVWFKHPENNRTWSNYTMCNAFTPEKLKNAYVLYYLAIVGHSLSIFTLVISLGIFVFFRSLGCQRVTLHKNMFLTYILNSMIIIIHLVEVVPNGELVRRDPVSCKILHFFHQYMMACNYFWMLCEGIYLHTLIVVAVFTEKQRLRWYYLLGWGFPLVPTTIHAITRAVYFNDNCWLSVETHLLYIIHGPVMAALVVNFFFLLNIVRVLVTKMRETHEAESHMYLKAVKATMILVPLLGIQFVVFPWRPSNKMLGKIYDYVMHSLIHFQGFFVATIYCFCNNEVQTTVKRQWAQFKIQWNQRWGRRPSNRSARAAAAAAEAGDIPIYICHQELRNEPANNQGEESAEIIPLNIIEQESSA
T1 sequence (looked up) 2: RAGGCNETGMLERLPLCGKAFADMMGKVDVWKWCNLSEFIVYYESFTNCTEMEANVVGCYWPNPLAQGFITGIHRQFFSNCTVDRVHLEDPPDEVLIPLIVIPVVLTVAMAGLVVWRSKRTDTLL
The experiment in a line: SPA competition with 125I-rat amylin on membranes of BHK cells with human calcitonin receptor and RAMP-3 (Assay V). Put shortly:
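One-site competition analysis of SPA counts yielded IC₅₀ as a measure of affinity. Membranes were at 35 ng/μL final; incubation was 120 min at 25° C, pH 7.4.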

The target in assay [2] is T2, human calcitonin receptor (human, UniProt P30988 25-474).
T2 construct: whole, on cells; Assay used cell membranes, not intact cells; also called hCTR; hCT
T2 sequence (looked up): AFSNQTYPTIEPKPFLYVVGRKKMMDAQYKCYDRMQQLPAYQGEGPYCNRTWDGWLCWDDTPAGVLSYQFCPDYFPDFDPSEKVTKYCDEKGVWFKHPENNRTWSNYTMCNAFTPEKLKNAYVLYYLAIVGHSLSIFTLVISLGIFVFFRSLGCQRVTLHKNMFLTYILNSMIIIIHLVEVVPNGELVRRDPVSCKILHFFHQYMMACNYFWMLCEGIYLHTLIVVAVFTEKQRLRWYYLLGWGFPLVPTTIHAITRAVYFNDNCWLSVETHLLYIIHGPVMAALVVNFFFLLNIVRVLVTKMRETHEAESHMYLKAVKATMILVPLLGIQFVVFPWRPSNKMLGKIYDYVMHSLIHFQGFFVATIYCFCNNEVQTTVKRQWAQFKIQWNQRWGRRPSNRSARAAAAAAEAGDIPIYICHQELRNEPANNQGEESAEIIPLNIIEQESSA
The experiment in a line: SPA competition with 125I-calcitonin on membranes of BHK cells with human calcitonin receptor (Assay VII). Put shortly:
(§1)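 BHK hCTR membranes 35 ng/μL + SPA beads 0.05 mg/well; buffer 50 mM Hepes pH 7.4, 1 mM CaCl2, 5 mM MgCl₂, 0.1% OA, 0.02% Tween20. 120 min, 25° C., shaking. Scintillation count; IC50 by one-site binding competition.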

In assay [3] the target is T2, human calcitonin receptor. The experiment in a line: ratio IC50 hCTR / IC50 hAmylin-R (reference: human amylin receptor), SPA competition assays. The gist of the method:
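Competition binding by SPA uses membrane preparations (35 ng/μL final) in pH 7.4 Hepes buffer with 1 mM CaCl2 and 5 mM MgCl₂. Incubation lasts 120 min at 25° C, and IC₅₀ comes from one-site fitting.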

The target of assay [4] is T3, human calcitonin receptor (human, UniProt P30988 25-474).
T3 construct: whole, on cells; Assay used cell membranes of the transfected BHK cells; also called hCTR; hCT
T3 sequence (looked up): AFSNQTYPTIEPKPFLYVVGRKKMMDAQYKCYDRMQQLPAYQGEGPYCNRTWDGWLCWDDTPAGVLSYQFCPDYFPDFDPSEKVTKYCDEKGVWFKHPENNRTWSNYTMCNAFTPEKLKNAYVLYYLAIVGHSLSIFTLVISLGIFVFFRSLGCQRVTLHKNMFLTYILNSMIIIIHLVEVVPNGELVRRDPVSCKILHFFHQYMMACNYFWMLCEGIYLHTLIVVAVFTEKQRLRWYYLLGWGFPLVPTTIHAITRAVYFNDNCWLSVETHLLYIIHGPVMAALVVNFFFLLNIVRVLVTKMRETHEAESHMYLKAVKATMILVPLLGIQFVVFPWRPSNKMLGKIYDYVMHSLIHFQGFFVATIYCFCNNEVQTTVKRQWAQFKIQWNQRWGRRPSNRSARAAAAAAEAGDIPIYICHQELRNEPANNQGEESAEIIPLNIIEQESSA
The experiment in a line: SPA radioligand competition (125I-calcitonin), membranes of BHK cells with human calcitonin receptor. Put shortly:
as §1
In general terms: In a radioligand displacement assay an active substance lowers the binding of a labelled ligand.

B1: N{-1}-[(4S)-4-carboxy-4-(19-carboxynonadecanoylamino)butanoyl]-Gly[Arg1,His14,Arg17,Pro21,Pro27]-h-amylin (peptide)
peptide: {C20 diacid-γGlu}-GRCNTATCATQRLAHFLRHSSPNFGAIPSSTNVGSNTY-NH2
modifications: disulfide 3-8
SMILES: CC[C@H](C)[C@H](NC(=O)[C@H](C)NC(=O)CNC(=O)[C@H](Cc1ccccc1)NC(=O)[C@H](CC(N)=O)NC(=O)[C@@H]1CCCN1C(=O)[C@H](CO)NC(=O)[C@H](CO)NC(=O)[C@H](Cc1c[nH]cn1)NC(=O)[C@H](CCCNC(=N)N)NC(=O)[C@H](CC(C)C)NC(=O)[C@H](Cc1ccccc1)NC(=O)[C@H](Cc1c[nH]cn1)NC(=O)[C@H](C)NC(=O)[C@H](CC(C)C)NC(=O)[C@H](CCCNC(=N)N)NC(=O)[C@H](CCC(N)=O)NC(=O)[C@@H](NC(=O)[C@H](C)NC(=O)[C@@H]1CSSC[C@H](NC(=O)[C@H](CCCNC(=N)N)NC(=O)CNC(=O)CC[C@H](NC(=O)CCCCCCCCCCCCCCCCCCC(=O)O)C(=O)O)C(=O)N[C@@H](CC(N)=O)C(=O)N[C@@H]([C@@H](C)O)C(=O)N[C@@H](C)C(=O)N[C@@H]([C@@H](C)O)C(=O)N1)[C@@H](C)O)C(=O)N1CCC[C@H]1C(=O)N[C@@H](CO)C(=O)N[C@@H](CO)C(=O)N[C@H](C(=O)N[C@@H](CC(N)=O)C(=O)N[C@H](C(=O)NCC(=O)N[C@@H](CO)C(=O)N[C@@H](CC(N)=O)C(=O)N[C@H](C(=O)N[C@@H](Cc1ccc(O)cc1)C(N)=O)[C@@H](C)O)C(C)C)[C@@H](C)O
notes: also called compound 99
Consider B1, for which the IC50 (in general, the concentration that gives 50% inhibition) came to 0.348 nM in assay [1] and 35 nM in assay [2]. In addition, the “Ratio hCT/hAmylin binding” value in assay [3] is 100.

B2: N^ε1-[2-[2-[2-[[(4S)-4-carboxy-4-(19-carboxynonadecanoylamino)butanoyl]amino]ethoxy]ethoxy]acetyl]-[Arg17,Pro21,Pro27,Pro28,Pro31]-h-amylin (peptide)
peptide: K([AEEA-γGlu-C20 diacid])CNTATCATQRLANFLRHSSPNFGAIPPSTPVGSNTY-NH2
modifications: disulfide 2-7
notes: Synthetic analogue; also called compound 53
B2: in assay [4], the IC50 amounted to 5.38 nM.

B3: N^ε1-[2-[2-[2-[[(4S)-4-carboxy-4-(19-carboxynonadecanoylamino)butanoyl]amino]ethoxy]ethoxy]acetyl]-[Arg17,Pro21,Pro27,Pro29,Pro34]-h-amylin (peptide)
peptide: K([AEEA-γGlu-C20 diacid])CNTATCATQRLANFLRHSSPNFGAIPSPTNVGPNTY-NH2
modifications: disulfide 2-7; N-terminus assumed
SMILES: CC[C@H](C)[C@H](NC(=O)[C@H](C)NC(=O)CNC(=O)[C@H](Cc1ccccc1)NC(=O)[C@H](CC(N)=O)NC(=O)[C@@H]1CCCN1C(=O)[C@H](CO)NC(=O)[C@H](CO)NC(=O)[C@H](Cc1c[nH]cn1)NC(=O)[C@H](CCCNC(=N)N)NC(=O)[C@H](CC(C)C)NC(=O)[C@H](Cc1ccccc1)NC(=O)[C@H](CC(N)=O)NC(=O)[C@H](C)NC(=O)[C@H](CC(C)C)NC(=O)[C@H](CCCNC(=N)N)NC(=O)[C@H](CCC(N)=O)NC(=O)[C@@H](NC(=O)[C@H](C)NC(=O)[C@@H]1CSSC[C@H](NC(=O)[C@@H](N)CCCCNC(=O)COCCOCCNC(=O)CC[C@H](NC(=O)CCCCCCCCCCCCCCCCCCC(=O)O)C(=O)O)C(=O)N[C@@H](CC(N)=O)C(=O)N[C@@H]([C@@H](C)O)C(=O)N[C@@H](C)C(=O)N[C@@H]([C@@H](C)O)C(=O)N1)[C@@H](C)O)C(=O)N1CCC[C@H]1C(=O)N[C@@H](CO)C(=O)N1CCC[C@H]1C(=O)N[C@H](C(=O)N[C@@H](CC(N)=O)C(=O)N[C@H](C(=O)NCC(=O)N1CCC[C@H]1C(=O)N[C@@H](CC(N)=O)C(=O)N[C@H](C(=O)N[C@@H](Cc1ccc(O)cc1)C(N)=O)[C@@H](C)O)C(C)C)[C@@H](C)O
notes: Synthetic analogue; also called compound 56
For B3, in assay [4], the IC50 came to 2.09 nM.

The values above are taken from patent publication US20140087995A1 (published 2014).
